# IntAct's records for PubMed 11955446
# B1: Protein BCL9 homolog (Drosophila melanogaster (Fruit fly)), Q961D9 (parent)
# chain: MLSTTMPRSPTQQQPQPNSDASSTSASGSNPGAAIGNGDSAASRSSPKTLNSEPFSTLSPDQIKLTPEEGTEKSGLSTSDKAATGGAPGSGNNLPEGQTMLRQNSTSTINSCLVASPQNSSEHSNSSNVSATVGLTQMVDCDEQSKKNKCSVKDEEAEISSNKAKGQAAGGGCETGSTSSLTVKEEPTDVLGSLVNMKKEERENHSPTMSPVGFGSIGNAQDNSATPVKIERISNDSTTEKKGSSLTMNNDEMSMEGCNQLNPDFINESLNNPAISSILVSGVGPIPGIGVGAGTGNLLTANANGISSGSSNCLDYMQQQNHIFVFSTQLANKGAESVLSGQFQTIIAYHCTQPATKSFLEDFFMKNPLKINKLQRHNSVGMPWIGMGQVGLTPPNPVAKITQQQPHTKTVGLLKPQFNQHENSKRSTVSAPSNSFVDQSDPMGNETELMCWEGGSSNTSRSGQNSRNHVDSISTSSESQAIKILEAAGVDLGQVTKGSDPGLTTENNIVSLQGVKVPDENLTPQQRQHREEQLAKIKKMNQFLFPENENSVGANVSSQITKIPGDLMMGMSGGGGGSIINPTMRQLHMPGNAKSELLSATSSGLSEDVMHPGDVISDMGAVIGCNNNQKTSVQCGSGVGVVTGTTAAGVNVNMHCSSSGAPNGNMMGSSTDMLASFGNTSCNVIGTAPDMSKEVLNQDSRTHSHQGGVAQMEWSKIQHQFFEERLKGGKPRQVTGTVVPQQQTPSGSGGNSLNNQVRPLQGPPPPYHSIQRSASVPIATQSPNPSSPNNLSLPSPRTTAAVMGLPTNSPSMDGTGSLSGSVPQANTSTVQAGTTTVLSANKNCFQADTPSPSNQNRSRNTGSSSVLTHNLSSNPSTPLSHLSPKEFESFGQSSAGDNMKSRRPSPQGQRSPVNSLIEANKDVRFAASSPGFNPHPHMQSNSNSALNAYKMGSTNIQMERQASAQGGSVQFSRRSDNIPLNPNSGNRPPPNKMTQNFDPISSLAQMSQQLTSCVSSMGSPAGTGGMTMMGGPGPSDINIEHGIISGLDGSGIDTINQNNCHSMNVVMNSMGPRMLNPKMCVAGGPNGPPGFNPNSPNGGLRENSIGSGCGSANSSNFQGVVPPGARMMGRMPVNFGSNFNPNIQVKASTPNTIQYMPVRAQNANNNNNNGANNVRMPPSLEFLQRYANPQMGAVGNGSPICPPSASDGTPGMPGLMAGPGAGGMLMNSSGEQHQNKITNNPGASNGINFFQNCNQMSIVDEEGGLPGHDGSMNIGQPSMIRGMRPHAMRPNVMGARMPPVNRQIQFAQSSDGIDCVGDPSSFFTNASCNSAGPHMFGSAQQANQPKTQHIKNIPSGMCQNQSGLAVAQGQIQLHGQGHAQGQSLIGPTNNNLMSTAGSVSATNGVSGINFVGPSSTDLKYAQQYHSFQQQLYATNTRSQQQQHMHQQHQSNMITMPPNLSPNPTFFVNK
# partner: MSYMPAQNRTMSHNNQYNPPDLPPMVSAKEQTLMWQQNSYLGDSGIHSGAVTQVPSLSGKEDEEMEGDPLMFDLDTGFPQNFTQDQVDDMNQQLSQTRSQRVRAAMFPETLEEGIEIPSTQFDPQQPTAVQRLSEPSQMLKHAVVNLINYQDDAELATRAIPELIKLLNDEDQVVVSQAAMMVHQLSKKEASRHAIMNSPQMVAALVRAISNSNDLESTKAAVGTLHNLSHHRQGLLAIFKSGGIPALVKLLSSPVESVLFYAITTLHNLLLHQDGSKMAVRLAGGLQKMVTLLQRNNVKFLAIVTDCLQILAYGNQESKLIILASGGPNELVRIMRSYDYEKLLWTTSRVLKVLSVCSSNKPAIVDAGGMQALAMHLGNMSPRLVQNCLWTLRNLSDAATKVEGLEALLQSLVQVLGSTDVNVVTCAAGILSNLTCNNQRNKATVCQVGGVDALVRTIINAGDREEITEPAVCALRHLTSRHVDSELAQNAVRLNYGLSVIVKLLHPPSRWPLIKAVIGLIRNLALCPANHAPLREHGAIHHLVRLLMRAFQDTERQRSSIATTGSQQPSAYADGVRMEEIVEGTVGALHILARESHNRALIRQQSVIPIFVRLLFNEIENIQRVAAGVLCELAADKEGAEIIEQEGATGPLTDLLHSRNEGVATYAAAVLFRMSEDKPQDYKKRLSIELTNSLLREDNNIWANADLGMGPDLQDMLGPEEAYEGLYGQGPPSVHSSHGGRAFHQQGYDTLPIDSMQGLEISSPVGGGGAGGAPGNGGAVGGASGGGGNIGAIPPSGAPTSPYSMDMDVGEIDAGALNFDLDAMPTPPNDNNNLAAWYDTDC
# Variants of: B1
# Conditions: with arm_drome arm
row,Variant,effect of a mutation on the interaction
1,L534F,decreasing interaction
